In article PMC12444091:

How the values were obtained:
Assay in all cases: potentiometry
Conditions in all cases: 25 °C (± 0.2 °C); 0.1 M (KCl); none (4 mM HCl, 0.1 M KCl); peptide 0.001 M; metal-free peptide, unstructured (random-coil CD spectrum)
[1] = biological target: Asp129 (UniProt position 129, …)
[2] = biological target: His124 (UniProt position 124, …)
[3] = biological target: Asp129 (UniProt position 129, …); remark: listed apart in the source
[4] = biological target: His124 (UniProt position 124, …); remark: listed apart in the source
[5] = biological target: Asp129 (UniProt position 129, …); remark: listed apart in the source

B1: HSPB1(124-131) peptide L2, Ac-HEERQDEA-NH2 (Homo sapiens; H131A) (peptide)
chain: HEERQDEA
**Q.** B1 was tested. Which pKa [1] did it give?
**A.** 3.60

**Q.** And the pKa [2]?
**A.** 7.00

B2: HSPB1(124-131) peptide L3, Ac-HEARQDEA-NH2 (Homo sapiens; E126A;H131A) (peptide)
chain: HEARQDEA
**Q.** How did the pKa [3] turn out when B2 was run?
**A.** 3.47

**Q.** What about the pKa [4] of the same protein?
**A.** 6.71

B3: HSPB1(124-131) peptide L4, Ac-HEARQDEH-NH2 (Homo sapiens; E126A) (peptide)
chain: HEARQDEH
**Q.** Which pKa [5] does the source give for B3 here?
**A.** 3.26
